The record followed here is PMC8249609 (2021).

The target of the assay is T1, AT1 receptor, residues 1-318, with N-terminal Flag-tag and BRIL (Flag-BRIL-AT1) (human (by the printed RefSeq …, UniProt P30556 1-318)).
T1 chain: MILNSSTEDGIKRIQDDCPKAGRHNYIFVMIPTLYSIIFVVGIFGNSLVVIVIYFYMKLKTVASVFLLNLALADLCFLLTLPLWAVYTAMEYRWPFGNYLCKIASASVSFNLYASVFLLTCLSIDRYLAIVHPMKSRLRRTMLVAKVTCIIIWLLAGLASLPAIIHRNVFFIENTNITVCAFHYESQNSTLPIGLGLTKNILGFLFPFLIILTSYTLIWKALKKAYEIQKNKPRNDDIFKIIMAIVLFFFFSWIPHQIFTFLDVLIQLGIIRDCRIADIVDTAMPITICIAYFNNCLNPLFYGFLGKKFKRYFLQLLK
Put plainly: SPR. (In SPR one partner is held on a chip, and binding of the other changes the refractive index at the surface.)

B1: cartilage oligomeric matrix protein with a C-terminal His-tag (COMP-His) (natural protein)
chain: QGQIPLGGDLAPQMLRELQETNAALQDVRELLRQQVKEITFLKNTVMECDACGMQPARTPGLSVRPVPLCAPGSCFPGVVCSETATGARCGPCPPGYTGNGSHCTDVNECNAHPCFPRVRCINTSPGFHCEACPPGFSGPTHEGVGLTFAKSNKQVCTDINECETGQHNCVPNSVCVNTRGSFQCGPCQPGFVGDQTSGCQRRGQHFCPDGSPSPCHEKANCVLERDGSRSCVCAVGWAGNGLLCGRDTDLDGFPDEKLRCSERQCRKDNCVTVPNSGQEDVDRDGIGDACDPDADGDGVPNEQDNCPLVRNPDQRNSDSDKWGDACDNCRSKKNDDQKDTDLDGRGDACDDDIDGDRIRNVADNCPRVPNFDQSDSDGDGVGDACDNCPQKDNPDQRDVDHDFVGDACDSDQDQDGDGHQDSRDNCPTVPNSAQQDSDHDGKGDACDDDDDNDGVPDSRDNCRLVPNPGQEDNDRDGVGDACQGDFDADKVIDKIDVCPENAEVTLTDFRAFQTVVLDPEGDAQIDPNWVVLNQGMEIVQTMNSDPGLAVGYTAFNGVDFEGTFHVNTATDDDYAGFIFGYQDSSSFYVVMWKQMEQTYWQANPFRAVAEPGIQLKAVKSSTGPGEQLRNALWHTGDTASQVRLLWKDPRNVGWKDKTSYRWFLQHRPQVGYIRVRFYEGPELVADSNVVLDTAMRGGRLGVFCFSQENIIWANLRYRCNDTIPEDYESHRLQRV
What is called koff is the first-order rate constant of dissociation. Read a high koff as a short-lived complex. As for B1, the koff was 0.000389 s⁻¹.
